Experimental data published in patent US20220169682A1 (PARIS SCIENCES ET LETTRES, published 2022).
Blank lines part the entries; values can stand above or below the binder they belong to.

Biological target: T1, FKBP-NFAST (UniProt P62942 2-108)
T1 construct: Expressed in HEK293T cells; also called cmyc-FKBP-linker-NFAST; pAG149; not shown: c-myc tag
Experiment: split-FAST fluorescence complementation, confocal imaging of HEK293T cells, 100 nM rapamycin, HMBR or HBR-3,5DOM
Procedure: FIG. 5A-B show HEK293T cells co-expressing FKBP-NFAST and FRB-CFASTn (n=10 or 11) which were labeled with 5 μM HMBR (FIG. 5A) or 10 μM HBR-3,5DOM (FIG. 5B) and imaged before and after addition of 100 nM rapamycin. Scale bars 10 μm. […] Cells expressing FAST were used as control. HMBR concentration was 10 μM. Excitation at 488 nm at 6.3 kW/cm2. Six cells were analyzed per condition. […] Scale bars 20 μm. […] Scale bars 20 μm.

T1 sequence (P62942 other isoform, or with tags, fused parts or gaps): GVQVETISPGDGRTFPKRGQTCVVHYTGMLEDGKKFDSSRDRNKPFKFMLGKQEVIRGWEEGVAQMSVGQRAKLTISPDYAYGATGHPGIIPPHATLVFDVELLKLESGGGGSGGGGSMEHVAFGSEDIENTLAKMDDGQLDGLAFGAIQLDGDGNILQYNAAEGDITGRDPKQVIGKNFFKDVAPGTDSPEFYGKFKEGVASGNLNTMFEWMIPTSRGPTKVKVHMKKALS

binding result: binds
B1: FRB-CFAST10 (other)
chain: ILWHEMWHEGLEEASRLYFGERNVKGMFEVLEPLHAMMERGPQTLKETSFNQAYGRDLMEAQEWCRKYMKSGNVKDLTQAWDLYYHVFRRISKSGGGGSGGGGSGDSYWVFVKR
notes: also called FRB-CFASTn (n=10)

binding result: binds
B2: FRB-CFAST11 (other)
chain: ILWHEMWHEGLEEASRLYFGERNVKGMFEVLEPLHAMMERGPQTLKETSFNQAYGRDLMEAQEWCRKYMKSGNVKDLTQAWDLYYHVFRRISKSGGGGSGGGGSGDSYWVFVKRV
notes: Expressed in HEK293T cells; also called cmyc-FRB-linker-CFAST(115-125); pAG152; not shown: c-myc tag
